Measurements taken from the nanobody polyreactivity screen of Harvey et al. (2022).

assay: yeast display, Sf9 membrane polyspecificity reagent, FACS + sequencing; frameworks hold sequencing errors
Method in brief: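 Nanobodies from a synthetic yeast display library (Saccharomyces cerevisiae BJ5465), induced 36–48 hours with galactose, were stained 1 hour at 4 °C with 10% biotinylated, detergent-solubilized Sf9 membrane reagent, enriched on streptavidin microbeads, then FACS-sorted. Anti-HA (expression) and streptavidin (reagent binding) fluorescence set low and high (top ~1%) gates. Polyreactivity labels come from the gate of origin. Genes were colony-PCR amplified, MiSeq 2 × 250 sequenced and filtered by CDR length.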

Sequence	polyreactivity (PSR sort gate)
QVQLVESGGGLVQAGGSLRLSCAASGSTLVYNDMGWYRQAPGKERELGATITGTDSTYYADSVKGRFTISRDNAKNTVYLQMNSLKPEDTADCAADRAASRPDYDYWGQGTQVTVSS	low polyreactivity
QVQLVESGGGLVQAGGSLRLSCAASGSTLVYNDMGWYRQAPGKERELVAAISSGASTYADSVKGRFTISRDNAKNTVYLQMNSLKPEDTAVYYCAKDIKLGPVGHSKYHRYDYWGQGTQVTVSS	low polyreactivity
QVQLVESGGGLVQAGGSLRLSCAASGSTLVYYDMGWYRQAPGKEREFVAAITISGGRTYYADSVKGRFTISRDNAKNTVYLQMNSLKPEDTAVYYCAADTDRRSPFDYWGQGTQVTVSS	high polyreactivity
QVQLVESGGGLVQAGGSLRLSCAASGSTLYDYAMGWYRQAPGKERELVAAINGSGGSTYYADSVKGRFTISRDNAKNTVYLQMNSLKPEDTAVYYCAAATTHRRRYGYWGQGTQVTVSS	low polyreactivity
QVQLVESGGGLVQAGGSLRLSCAASGSTLYDYTMGWYRQAPGKERELVAAIRVSGARTFYADSVKGRFTISRDNAKNTVYLQMNSLKPEDTAVYYCAARWYIANPLSPSDYWGQGTQVTVSS	low polyreactivity
QVQLVESGGGLVQAGGSLRLSCAASGSTLYGNVMGWYRQAPGKERELVATINRGGSTNYADSVKGRFTISRDNAKNTVYLQMNSLKPEDTAVYYCAARGFAWYYLEDYWGQGTQVTVSS	low polyreactivity
QVQLVESGGGLVQAGGSLRLSCAASGSTLYGYAMGWSRQAPGKERELVAAISDSGGNTYYADSVKGRFTISRDNAKNTGYLQMNSLKPEDTAVYYCAAEDIVFPYDYWGQGTQVTVSS	low polyreactivity
QVQLVESGGGLVQAGGSLRLSCAASGSTLYHSTMGWYRKAPGKETELVAAITWSGGSTSYADSVKGRFTISRDNAKNTVYLQMNSLKPEDTAVYYCAADDTPDDSDYWGQGTQVTVSS	low polyreactivity
QVQLVESGGGLVQAGGSLRLSCAASGSTLYKYAMVWYRQAPGKEREFVAAITRSGGSTYYADSVKGRFTISRDNAKNTVDLQMNSLKPEDTAVYYCAARVRVYSGWLYNYWGQGTQVTVSS	high polyreactivity
QVQLVESGGGLVQAGGSLRLSCAASGSTLYRYAMGWYRQAPGKERELVAAISSSGGSTYYADSVKGRFTISRDNAKNTVYLQMNSLKPEDTAVYYCAAYFSTAPKSQYKLDYWGQGTQVTVSS	high polyreactivity
QVQLVESGGGLVQAGGSLRLSCAASGSTLYSYAMGWYRQAPGKERELVAAIRRDSGRTYYADSVKGRFTISRDNEKNTVYLQMNSLKPEDTAVYYCAAAYRLGYHKYYYWGQGTQVTVSS	high polyreactivity
QVQLVESGGGLVQAGGSLRLSCAASGSTLYVYAMGWYRQAPGKEREFVADISWSGGSTYYADSVKGRFTISRDNAKNTVYLQMNILKPEDTAVYYCNADFTDSYWSRYDYWGQGTQVTVSS	low polyreactivity
QVQLVESGGGLVQAGGSLRLSCAASGSTLYVYAMGWYRQAPGKERELVAAITRGSRTSYADSVKGRFTISRDNAKNTVYLQMNSLKPEDTAVYYCNADTILWFLPPQKRDYWGQGTQVTVSS	low polyreactivity
QVQLVESGGGLVQAGGSLRLSCAASGSTLYVYTMGWYRQAPGKERELVAGITRGGSTYYADSVKGRFTISRDNAKNTVYLQMNSLKPEDTAVYYCAARSSYREYYWGQGTQVTVSS	high polyreactivity
QVQLVESGGGLVQAGGSLRLSCAASGSTLYVYTMGWYRQAPGKERELVATINTSGSRTYYADSLKGRFTISRDIAKNTVYLQMNSLKPEDTAVYYCNARSSRWFYGYNYWGQGTQVTVSS	high polyreactivity
QVQLVESGGGLVQAGGSLRLSCAASGSTLYWYAMGWYRQAPGKERELVASISWSGGSTYYADSVKGRFTISRDNAKITVYLQMNSLKPEDTAVYYCDAVRHYHGTWYDYWGEGTQVTVSS	high polyreactivity
QVQLVESGGGLVQAGGSLRLSCAASGSTMDYNAMGWYRQAPGKERELVAAITNGGSTTYADSVKGRFTISRDNAKNTVYLQMNSLNPEDTAVYYCAAKWYPQLWFWKFLTYNYWGQGPQVTVSS	low polyreactivity
QVQLVESGGGLVQAGGSLRLSCAASGSTNSQYAMGWYRQAPGKERELVAAITTSDGSTNYADSVKGRFTISRDNAKNTVYLQMNSLKPEDTAVYYCNTEYFYFSFGYWGQGTQVTVSS	low polyreactivity
QVQLVESGGGLVQAGGSLRLSCAASGSTRYYMGWYRQAPGKEREMVAAISKSGGTTYYADSVKGRFTISRDNAMTTVYLQMTSLKPEDTAVYYCAAQRSRSYTYDYWGQGTQVTVSS	high polyreactivity
QVQLVESGGGLVQAGGSLRLSCAASGSTSDENAMGWYRQAPGKERELVASITVSGGSTSYADSVKGRFTISRDNAKNTVYLQMNSLKPEDTAVYYCNTDFGQAHTLSWYEDMDYWGQGTQVTVSS	low polyreactivity
QVQLVESGGGLVQAGGSLRLSCAASGSTSDINAMGWYRPAPGKERELVAVITFSGGTTNYADSVKGRFTISRDNAKNTVYLQMNSLKPEDTAVYYCNADTLTTTRRFNPYDYWGQGTQVTVSS	low polyreactivity

Sequence	polyreactivity (PSR sort gate)
QVQLVESGGGLVQAGGSLRLSCAASGSTSDINAMGWYRQAPGKERELVAVITFSGGSTNYADSVKGRFTISRDNAKNTVYLQMNSLKPEDTAVYYCSTSGQLYYSRNFDYWGQGTQVTVSS	low polyreactivity
QVQLVESGGGLVQAGGSLRLSCAASGSTSDSNAMGWSRQAPGKERELVAAITYSGDSTYYAYSVKGRFTISRDNAKNTVYLQMNSLKPEDTAVYYCATETYPSYEVDYWGQGTQVTVSS	low polyreactivity
QVQLVESGGGLVQAGGSLRLSCAASGSTSFLYALGWYRQAPGKERELVAAISRSGGTTYYADSVKGRFTISRDNAKNTVYLQMNSLKPEDTAVYYCNAVGPKRYDYWGQGTQVTVSS	high polyreactivity
QVQLVESGGGLVQAGGSLRLSCAASGSTSKGYAMGGYRQAPGKDRELVAAISAGGGRTYYADSVKGRFTISRENAKNTVYLQMNSLKPEDTAVYYCANAGTIYQSPREYWGQGTQVTVSS	high polyreactivity
QVQLVESGGGLVQAGGSLRLSCAASGSTSKSYTMGWYRQAPGKERELVAAISYSGVSTYYADSVKGRFTISRDNAKNTVYLQMNSLKPEDTAVYDGAADWVPRQYPGRGGYWGQGTQVTVSS	high polyreactivity
QVQLVESGGGLVQAGGSLRLSCAASGSTSLYYAMGWYRQAPGKEREFVAAITWSGGSTYYADSVKGRFTISRDNAKNTVYLQMNSLKPEDTAVYYCAARSYGYSAGYYWGQGTQVTVSS	high polyreactivity
QVQLVESGGGLVQAGGSLRLSCAASGSTSPTNVMGWYRQAPGKERELVAAISYSGGRTYYADSVKGRFTISRDNAKNTVYLQMNSLKPEDTAVYYCNAGKRGSTYYYWGQGTQVTVSS	high polyreactivity
QVQLVESGGGLVQAGGSLRLSCAASGSTSQINAMGWYRQAPGKERELVAAITWSGDSTYYADSVKGRFTISRDNAKNTVYLQMNSLKPEDTAVYYCAAVSRYFSTYLYDYWGQGTQVTVSS	low polyreactivity
QVQLVESGGGLVQAGGSLRLSCAASGSTSRGYAMAWYRQAPGKERELFASITLSGGNTYYADSVKGRFTISRDNAKNTVYLQMNSLKPEDTAVYYCAADDRGSSYGHFTVEYGYWGQGTQVTVSS	low polyreactivity
QVQLVESGGGLVQAGGSLRLSCAASGSTSRTYAMGWYRQAPAKERELVAASSSSGGRTYYADSVKGRFTISRDNAKNTVYLQMNSMKPEDTAVYYCNARTYSYRGYNYWGQGTQVTVSS	high polyreactivity
QVQLVESGGGLVQAGGSLRLSCAASGSTSSNNAMGWYRQAPGKERELVADISTNGDSTSYADSVKGRFTISRDNAKNTVYLQMNSLKPEDTAVYYCAASTYVTYWEYDFWGQGTQVTVSS	low polyreactivity
QVQLVESGGGLVQAGGSLRLSCAASGSTSTLYAMGWYRQAPGKERELVAAISKSGGRTYYADSVKGRFTISRDNAKNTVYLQMNSLKPEDTAVYYCNTVPGRYRTFDYWGQGTQVTVSS	high polyreactivity
QVQLVESGGGLVQAGGSLRLSCAASGSTSTRNAMGWYRPAPGKERELVAAITSGGNTYYADSVKGRFTISRDNAKNTVYLQMNSLKPEDTAVYYCAAASPGPWRYDYWGQGTQVTVSS	high polyreactivity
QVQLVESGGGLVQAGGSLRLSCAASGSTSVPYAMGWYRQAPGKERELVAAITIGGSTNYADSVKGRFTISRDNAKNTVYLQMNSLKPEDTAVYYCNAVLTQYWKLVRYYGVDYWGQGTQVTVSS	low polyreactivity
QVQLVESGGGLVQAGGSLRLSCAASGSTSVQYAMGWYRQAPVKERELVAAIDRSGGSTSYADSVKGRFTISRDNANNTVYLQMNSLKPEDTAVYYCNADPVRSTYSYDYWGQGTQVTVSS	low polyreactivity
QVQLVESGGGLVQAGGSLRLSCAASGSTSVVNTMGWYRQAPGKERELVAAISWSGGSTYYADSVKGRFTISRDNAKNTVYLQMNSLKPEDTAVYYCNAQRNFKSITEYDYWGQGTQVTVSS	high polyreactivity
QVQLVESGGGLVQAGGSLRLSCAASGSTSYLYPMGWDRQAPGKERELVAAISWNGGSTYYADSVKGRFTISLDNAKNTVYLQMNSLKPEDTAVYYCAASVHATSFSGGRHWFKLYYWGQGTQVTVSS	high polyreactivity
QVQLVESGGGLVQAGGSLRLSCAASGSTSYNAMGWYRQAPGKERELVAAISDGGGSTYYADSVKGRFTISRDNAKNTVYLQMISLKPEDTAVYYCAADTITGDGYWAQGTQVTVSS	low polyreactivity
QVQLVESGGGLVQAGGSLRLSCAASGSTSYNYVMGWYRQAPGKERELVAAISFTDGTTYYADSVKGRFTISRDNAKNTVYLQMNSLKPEDTAVYYCAAGYTGYTYTEMDYWGQVTQVTVSS	low polyreactivity
QVQLVESGGGLVQAGGSLRLSCAASGSTSYSYMGWYRQAPGKERELVAAIDESGGSTYYADSVKGRFTISRDNAKNTVYLQMNSLKPEDTAVYYCNRRYGRSYRWGYGYWGQGTQVTVSS	low polyreactivity
